{"source": "the supplement of paper PMC10567573", "parents": {"B1": {"name": "TRIM14 (parent)", "chain": "REQADSCREQLDIMNDLSNRVWSI"}}, "data": [{"variants_of": "B1", "experiment": "protein stability index of a GFP-peptide fusion (GPS, HEK-293T) (PSI 1-6); higher = more stable", "conditions": "c terminus: a fixed tail appended", "values": [{"variant": "REQADSCREQLDIMNDLINRVWSI", "protein stability index": 2.2}, {"variant": "REQADSCREQLDIMNDLHNRVWSI", "protein stability index": 1.77}, {"variant": "REQADSCREQLDIMNDLKNRVWSI", "protein stability index": 1.87}, {"variant": "REQADSCREQLDIMNDLMNRVWSI", "protein stability index": 2.01}, {"variant": "REQADSCREQLDIMNDLANRVWSI", "protein stability index": 2.29}, {"variant": "REQADSCREQLDIMNDLNNRVWSI", "protein stability index": 2.14}, {"variant": "REQADSCREQLDIMNDLDNRVWSI", "protein stability index": 2.8}, {"variant": "REQADSCREQLDIMNDLLNRVWSI", "protein stability index": 1.73}, {"variant": "REQADSCREQLDIMNDLENRVWSI", "protein stability index": 2.75}, {"variant": "REQADSCREQLDIMNDLCNRVWSI", "protein stability index": 2.3}, {"variant": "REQADSCREQLDIMNDLGNRVWSI", "protein stability index": 1.83}, {"variant": "REQADSCREQLDIMNDLFNRVWSI", "protein stability index": 1.48}, {"variant": "REQADSCREQLDIGNDLSNRVWSI", "protein stability index": 2.26}, {"variant": "REQADSCREQLDIVNDLSNRVWSI", "protein stability index": 2.26}, {"variant": "REQADSCREQLDIKNDLSNRVWSI", "protein stability index": 2.33}, {"variant": "REQADSCREQLDIRNDLSNRVWSI", "protein stability index": 2.03}, {"variant": "REQADSCREQLDIENDLSNRVWSI", "protein stability index": 2.81}, {"variant": "REQADSCREQLDIYNDLSNRVWSI", "protein stability index": 1.72}, {"variant": "REQADSCREQLDILNDLSNRVWSI", "protein stability index": 1.99}, {"variant": "REQADSCREQLDIINDLSNRVWSI", "protein stability index": 2.2}, {"variant": "REQADSCREQLDIANDLSNRVWSI", "protein stability index": 2.07}, {"variant": "REQADSCREQLDIQNDLSNRVWSI", "protein stability index": 2.79}, {"variant": "REQADSCREQLDIDNDLSNRVWSI", "protein stability index": 3.01}, {"variant": "REQADSCREQLDIHNDLSNRVWSI", "protein stability index": 2.45}, {"variant": "REQADSCREQLDISNDLSNRVWSI", "protein stability index": 2.81}, {"variant": "REQADSCREQLDITNDLSNRVWSI", "protein stability index": 2.5}, {"variant": "REQADSCREQLDICNDLSNRVWSI", "protein stability index": 2.36}, {"variant": "REQADSCREQLDIFNDLSNRVWSI", "protein stability index": 1.76}, {"variant": "REQADSCREQLDINNDLSNRVWSI", "protein stability index": 2.98}, {"variant": "REQADSCREQLDIPNDLSNRVWSI", "protein stability index": 2.93}, {"variant": "REQADSCREQLDIWNDLSNRVWSI", "protein stability index": 1.78}, {"variant": "REQADSCREQLDRMNDLSNRVWSI", "protein stability index": 2.43}, {"variant": "REQADSCREQLDWMNDLSNRVWSI", "protein stability index": 1.76}, {"variant": "REQADSCREQLDYMNDLSNRVWSI", "protein stability index": 2.04}, {"variant": "REQADSCREQLDSMNDLSNRVWSI", "protein stability index": 2.51}, {"variant": "REQADSCREQLDTMNDLSNRVWSI", "protein stability index": 2.74}, {"variant": "REQADSCREQLDVMNDLSNRVWSI", "protein stability index": 2.02}, {"variant": "REQADSCREQLDIMNDYSNRVWSI", "protein stability index": 2.1}, {"variant": "REQADSCREQLDIMNDESNRVWSI", "protein stability index": 3.3}, {"variant": "REQADSCREQLDIMNDKSNRVWSI", "protein stability index": 2.59}, {"variant": "REQADSCREQLDIMNDISNRVWSI", "protein stability index": 2.59}, {"variant": "REQADSCREQLDIMNDCSNRVWSI", "protein stability index": 2.53}, {"variant": "REQADSCREQLDIMNDVSNRVWSI", "protein stability index": 2.68}, {"variant": "REQADSCREQLDIMNDGSNRVWSI", "protein stability index": 2.96}, {"variant": "REQADSCREQLDIMNDSSNRVWSI", "protein stability index": 2.72}, {"variant": "REQADSCREQLDIMNDWSNRVWSI", "protein stability index": 1.85}, {"variant": "REQADSCREQLDIMNDASNRVWSI", "protein stability index": 2.46}, {"variant": "REQADSCREQLDIMNDPSNRVWSI", "protein stability index": 2.28}, {"variant": "REQADSCREQLDIMNDHSNRVWSI", "protein stability index": 2.71}, {"variant": "REQADSCREQLDIMNDQSNRVWSI", "protein stability index": 2.45}, {"variant": "REQADSCREQLDIMNDMSNRVWSI", "protein stability index": 2.63}, {"variant": "REQADSCREQLDIMNDNSNRVWSI", "protein stability index": 2.56}, {"variant": "REQADSCREQLDIMNDRSNRVWSI", "protein stability index": 2.25}, {"variant": "REQADSCREQLDIMNDDSNRVWSI", "protein stability index": 3.18}, {"variant": "REQADSCREQLDIMNDFSNRVWSI", "protein stability index": 2.13}, {"variant": "REQADSCREQLDIMNDTSNRVWSI", "protein stability index": 2.7}, {"variant": "REQADSCREQLDIMNFLSNRVWSI", "protein stability index": 1.86}, {"variant": "REQADSCREQLDIMNMLSNRVWSI", "protein stability index": 1.61}, {"variant": "REQADSCREQLDIMNGLSNRVWSI", "protein stability index": 2.25}, {"variant": "REQADSCREQLDIMNHLSNRVWSI", "protein stability index": 1.64}, {"variant": "REQADSCREQLDIMNILSNRVWSI", "protein stability index": 1.77}, {"variant": "REQADSCREQLDIMNWLSNRVWSI", "protein stability index": 2.04}, {"variant": "REQADSCREQLDIMNTLSNRVWSI", "protein stability index": 1.99}, {"variant": "REQADSCREQLDIMNQLSNRVWSI", "protein stability index": 2.18}, {"variant": "REQADSCREQLDIMNRLSNRVWSI", "protein stability index": 2.85}, {"variant": "REQADSCREQLDIMNKLSNRVWSI", "protein stability index": 3.35}, {"variant": "REQADSCREQLDIMNCLSNRVWSI", "protein stability index": 1.8}, {"variant": "REQADSCREQLDIMNLLSNRVWSI", "protein stability index": 1.68}, {"variant": "REQADSCREQLDIMNNLSNRVWSI", "protein stability index": 1.63}, {"variant": "REQADSCREQLDIMNYLSNRVWSI", "protein stability index": 2.01}, {"variant": "REQADSCREQLDIMNSLSNRVWSI", "protein stability index": 2.19}, {"variant": "REQADSCREQLDIMNELSNRVWSI", "protein stability index": 2.06}, {"variant": "REQADSCREQLDIMNVLSNRVWSI", "protein stability index": 1.65}, {"variant": "REQADSCREQLDIMNALSNRVWSI", "protein stability index": 2.28}, {"variant": "REQADSCREQLDIMNPLSNRVWSI", "protein stability index": 1.52}, {"variant": "REQADSCREQLDIMIDLSNRVWSI", "protein stability index": 2.33}, {"variant": "REQADSCREQLDIMGDLSNRVWSI", "protein stability index": 2.12}, {"variant": "REQADSCREQLDIMQDLSNRVWSI", "protein stability index": 1.89}, {"variant": "REQADSCREQLDIMSDLSNRVWSI", "protein stability index": 1.94}, {"variant": "REQADSCREQLDIMRDLSNRVWSI", "protein stability index": 2.17}, {"variant": "REQADSCREQLDIMMDLSNRVWSI", "protein stability index": 2.58}, {"variant": "REQADSCREQLDIMEDLSNRVWSI", "protein stability index": 2.76}, {"variant": "REQADSCREQLDIMDDLSNRVWSI", "protein stability index": 2.69}, {"variant": "REQADSCREQLDIMFDLSNRVWSI", "protein stability index": 2.39}, {"variant": "REQADSCREQLDIMTDLSNRVWSI", "protein stability index": 2.36}, {"variant": "REQADSCREQLDIMKDLSNRVWSI", "protein stability index": 2.44}, {"variant": "REQADSCREQLDIMADLSNRVWSI", "protein stability index": 2.25}, {"variant": "REQADSCREQLDIMHDLSNRVWSI", "protein stability index": 2.54}, {"variant": "REQADSCREQLDIMLDLSNRVWSI", "protein stability index": 2.91}, {"variant": "REQADSCREQLDIMVDLSNRVWSI", "protein stability index": 2.14}, {"variant": "REQADSCREQLDIMWDLSNRVWSI", "protein stability index": 2.68}, {"variant": "REQADSCREQLDIMPDLSNRVWSI", "protein stability index": 2.18}, {"variant": "REQADSCREQLDIMCDLSNRVWSI", "protein stability index": 2.53}, {"variant": "REQADSCREQLDIMYDLSNRVWSI", "protein stability index": 1.96}]}]}
